The values below come from patent US20250320284A1 (AC IMMUNE, published 2025).

In assay [1] the target is T1, human ASC (apoptosis associated speck-like protein containing a caspase-recruitment domain) (human, UniProt Q9ULZ3 1-195).
T1 construct: recombinant hASC in ELISA and SPR; endogenous ASC (cytoplasmic or specks) in Western blot and immunofluorescence; also called hASC; PYCARD
The assay can be described thus: ELISA, coated hASC. (An ELISA detects its analyte on a solid surface through an enzyme-linked reagent.)

The target of a further assay is T2, PYD domain of human ASC (human, UniProt Q9ULZ3 1-91, limits assumed).
T2 construct: biotinylated in BLI; His/MBP-tagged in the alanine ELISA; also called hPYD; human PYD
T2 sequence (Q9ULZ3 1-91 limits assumed): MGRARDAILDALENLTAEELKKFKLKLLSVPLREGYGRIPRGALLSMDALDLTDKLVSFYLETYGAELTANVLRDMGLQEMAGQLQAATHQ
The assay can be described thus: ELISA, coated hPYD.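 Also: monoclonal antibody binding to plate-coated human ASC PYD measured by ELISA, with a phosphatase substrate absorbance read-out and EC50 from a variable slope curve fit.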

A further assay has as its target T3, mouse ASC (mouse, UniProt Q9EPB4 1-193).
T3 construct: recombinant mASC in ELISA and SPR; endogenous ASC of J774.A1 cells in Western blot and immunofluorescence; also called mASC
T3 sequence: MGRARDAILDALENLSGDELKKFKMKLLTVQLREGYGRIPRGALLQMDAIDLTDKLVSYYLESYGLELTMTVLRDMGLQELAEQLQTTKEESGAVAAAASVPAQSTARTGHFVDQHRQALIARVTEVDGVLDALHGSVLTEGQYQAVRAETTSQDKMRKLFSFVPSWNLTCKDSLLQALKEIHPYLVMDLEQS
Briefly: ELISA, coated mASC.

Another assay concerns the target T4, CARD domain of human ASC (human, UniProt Q9ULZ3 107-195).
T4 construct: biotinylated in BLI; also called hCARD; human CARD
T4 sequence: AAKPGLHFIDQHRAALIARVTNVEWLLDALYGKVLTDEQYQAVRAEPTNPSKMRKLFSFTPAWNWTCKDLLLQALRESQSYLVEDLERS
The assay can be described thus: ELISA, coated hCARD.

Assay [2] deals with T1, human ASC (apoptosis associated …). Briefly: SPR affinity mode, mAb captured.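 Also: Single-cycle SPR kinetics with mAbs captured on goat anti-mouse antibody, double-referenced against blank flow cell and buffer cycle, fitted by a 1:1 kinetic model.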
For assay [3] the target is unchanged. Briefly: SPR avidity mode, ASC immobilized.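 Also: Single-cycle SPR kinetics on Biacore T200, antibodies injected at 1.2–100 nM (3-fold steps), 300 s association, 900 s dissociation, double-referenced, 1:1 kinetic model fit.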

Substitutions are numbered along the chain they refer to.

B1: ACI-8016-19E6D4-AB1 (antibody, V domains shown)
VH: EVKLVESGGGLVQPGGSLKLSCAASGFTFSDYYMYWVRQNAEKRLEWVAYISSGGDAPFYSDNLKGRFTISRDNAKNTLYLQMSRLQPEDTAMYFCAREGFYYYGLYGMDYWGQGTSVTVSS
VL: DIVLSQSPATLSVTPGDSVSLSCRASQSIGDNLHWYQQKSHESPRLIIKSASQSISGIPSRFSGSGSGTDFTLSINIVETEDFGMYFCQQSDTWPLTFGPGTKLELK
notes: also called 936.19E6D4
As for B1, the values for the half-maximal effective concentration (EC50) (in assay [1]; with CARD domain of human ASC) were 100 pM and 90 pM, respectively. The binding result in the assay with PYD domain of human ASC and in the assay with mouse ASC was “no binding” throughout.

B2: ACI-8016-2602H6F10-AB1 (antibody, V domains shown)
VH: QVQLQQSGAELARPGASVKLSCKASGFSFTSYGISWVKQRTGQGLEWIGQIYLRSSNTYYNEKFKDKATLTADKSSSTVYMELRSLTSEDSAVYFCARYYGSSSDYWGQGTTLTVSS
VL: DIQMNQSPSSLSASLGDTITINCHASQNINVWLSWYQQKPGNIPKVLIYQASNLQTGVPTRFSGSGSGTGFTLTISRLQPEDIATYYCQQGQRYPWTFGGGTKLEIK
For B2, the EC50 in assay [1] amounted to 11100 pM; with PYD domain of human ASC, 2520 pM; with mouse ASC, 4520 pM. Besides, in the assay with CARD domain of human ASC, the binding result was “no binding”.

B3: ACI-8016-27A1G4-AB1 (antibody, V domains shown)
VH: QVQLQQSDAELVKPGASVKISCKVSGYTFTDHTIHWMRQRPEQGLEWIGYIYPGDASSYYNEKFKGKATLTADQSSNTAYIQVNSLTSEDSAVYFCARPLYSYASYYWFAYWGQGTLVTVSA
VL: B2 VL with N22T, S34T, V46L, Q50K, Q55H, G57D, T60S, R77S, R93S, W96L
notes: also called 936.27A1G4
As for B3, the EC50 is 150 pM in assay [1], 110 pM in the assay with mouse ASC and 130 pM in the assay with CARD domain of human ASC. The binding result in the assay with PYD domain of human ASC was “no binding”.

B4: ACI-8016-3E6B11-AB1 (antibody, V domains shown)
VH: EVQLQQSGAELVRPGSSVKMSCKTSGYTFTNYGITWVKQRPGQGLEWIGYIYVGNGYTEYNEKFKDKAALTSDTSSSTAYMQLTSLTSDDSTIYFCARIAQGRCFDYWGQGTTLSVSS
VL: DIVLTQSPASSAVSLGQRATISCRASQSVSTSSYSYMHWYQQKPGQPPKLLIKYASTLESGVPARFSGSGSGTDFTLNIHPVEEEDTATYYCQHSWELPYMFGGGTKLEIK
notes: also called 936.3E6B11
On to B4, for which the half-maximal effective concentration (EC50) in assay [1] is 150 pM; with mouse ASC it was 150 pM; in the assay with CARD domain of human ASC, 130 pM. The binding result with PYD domain of human ASC is reported as “no binding”.

B5: ACI-8016-29C5E11-AB1 (antibody, V domains shown)
VH: EVQLQQSGAELVRPGSSVKMSCRTSGYTFTNNGITWVKQRPGQGLEWIGYIYVGNGYTEYNEKFKDKATLTSDTASSTVYMQLNSLTSEDSAIYFCARLDRGRALDYWAQGTTLTVSS
VL: B4 VL with S11L, Q27K, T31S, S33A, K53H, Y54L, T57N, T87A, M101T
notes: also called 936.29C5E11
On to B5, for which the figures for the EC50 (in assay [1]; with mouse ASC; with CARD domain of human ASC) were 160 pM, 140 pM and 140 pM, respectively. The binding result with PYD domain of human ASC was “no binding”.

B6: ACI-8016-2A1B12-AB1 (antibody, V domains shown)
VH: EVQLQQSGAELVRPGSSVKMSCETSGYTFTTYGLTWVKQRPGQGLEWIGYIYVGNGYTEYNEKFKDKATLTSDTSSSIVYMQLSSLTSEDSAIYFCARLGLRRHFDYWGQGTTLTVSS
VL: AIQMTQTTSSLSASLGDRVTISCRASQDISNYLHWYQQKPDGTVKLLIFFTSGLRSGVPSRFSGSGSGTDYSLTISNLEQEDIATYFCQQSILLPWTFGGGTKLEIK
notes: also called 936.2A1B12
Regarding B6, the EC50 is 170 pM in assay [1], 3340 pM with PYD domain of human ASC, 1560 pM in the assay with mouse ASC and 130 pM with CARD domain of human ASC.

B7: ACI-8016-17H1G2-AB1 (antibody, V domains shown)
VH: EVQLQQSGAELVRPGSSVKMSCKTSGFTFTSYGISWVIQRPEQGLEWIGYIYIRNGYTEYNEKFKGKATLTSDTSSNTAYMQLSNLASEDSAIYFCVRIHRRFFDYWGQGTTLTVSS
VL: DIQMTQTTSSLSASLGDRVTISCSASQGISNYLNWFQQKPNGTVRLLIYYTSSLHSGVPSRFSGSGSGTDYSLTISNLEPEDIATYYCQQYDRLPWTFGGGTKLEIK
notes: also called 936.17H1G2
For B7, the EC50 in assay [1] was 130 pM; in the assay with mouse ASC it was 190 pM; in the assay with CARD domain of human ASC, 100 pM. For the same molecule, the binding result with PYD domain of human ASC is “no binding”.

B8: ACI-8016-421B10C12D2-AB1 (antibody, V domains shown)
VH: EVQLQQSGADLVKPGASVKLSCTASGFNIEDTYIHWVKQRPARGLEWVGRIDPANGNTDYDPKFQGKATMITDTSSNTVYLQVSSLTSEDTAVYFCGRHDGYDMDYWGQGTSVTVSS
VL: DIVMSQSPSSLAVSAGEKVTMSCQSSQSLLNGRTRRNYLAWYQQKPGQSPKLLIYWASTRKSGVPDRFTGSGSGTDFTLTITSVQAEDLAVYYCKQSYNLVTFGAGTKLELK
For B8, a half-maximal response in assay [1] (EC50) required 60 pM. The molecule further displayed an EC50 with PYD domain of human ASC of 70 pM. Moreover, in the assay with CARD domain of human ASC, the binding result is recorded as “no binding”. In assay [2], this molecule had a Kd of 360 pM, a dissociation rate constant (koff) of 0.00017 s⁻¹ and an association rate constant (kon) of 470000 M⁻¹ s⁻¹. In assay [3], the Kd was < 10 pM, the koff came out at 2.2e-07 s⁻¹ and the kon was found to be 190000 M⁻¹ s⁻¹.

B9: ACI-8016-207E8B2-AB1 (antibody, V domains shown)
VH: QVQLQQSGAELAKPGASVKLSCKASGYTFTSYWMHWVKQRPGQGLEWIGYINPSSGYTKCNQKFKDKATLTADKSSSTAYMQLSSLTYEDSAVYYCVFPFDYDGFDYWGQGTTLTVSS
VL: DVLMTQTPLSLPVSLGDQASISCRSSQSIVHSNGNTYLEWYLQKPGQSPKLLIYKVSNRFSGVPDRFSGSGSGTVFTLKISRVEAEDLGVYYCFQDSHFPFTFGSGTKLEIK
For the molecule B9, the half-maximal effective concentration (EC50) amounted to 100 pM in assay [1], 120 pM in the assay with PYD domain of human ASC and 110 pM with mouse ASC. Further, the binding result with CARD domain of human ASC is “no binding”.

B10: ACI-8016-11A3F3-AB1 (antibody, V domains shown)
VH: QVQLQQSGAELARPGTSVKLSCKASGYTFISFGLSWVKQRTGQGLEWIGEIYPRIDNPYYNEKFKGKAILTADKSSSTAYMELRSLTSEDSAVYFCARYFTKGNYFDYWGQGTTLTVSS
VL: DIQMTQSPASLAASVGETVTITCRASENIYYSLAWYQQKQGKSPQVLIYYANSLEDGVPSRFSGSGSGTQYSLKINSMQPEDTATYFCKQAYDVPFTFGTGTKLELK
notes: also called 936.11A3F3
Take B10: the EC50 in assay [1] is 110 pM; in the assay with mouse ASC it was 630 pM; with CARD domain of human ASC, 120 pM. The binding result in the assay with PYD domain of human ASC was “no binding”.

B11: ACI-8016-417E12A8-AB1 (antibody, V domains shown)
VH: QVQLQQPGAELVRPGASVILSCKASGYTFTSSWITWVKQRPGQGLEWIGNIYPSDSYTNSNQKFKDKATLTVDKSSSTAYMHLISPTSEDSAVYYCTRKDFVYDAWYFDVWGAGTTVTVSS
VL: DIVMTQSQKFMSTSVGDRVTVTCKASQNVGTNVAWYQQRPGQSPKPLIYSASYRNSGVPDRFTGSGSGTDFTLTITNVQSEDLAEYFCQQYNNYPLTFGAGTKLELK
On to B11, for which the half-maximal effective concentration (EC50) in assay [1] turned out to be 70 pM; in the assay with PYD domain of human ASC it was 60 pM. Moreover, the binding result with CARD domain of human ASC is on record as “no binding”. Further, the Kd in assay [2] was 120 pM; in assay [3], < 10 pM. In addition, the values for the koff in assay [2] and in assay [3] were 2.9e-05 s⁻¹ and 4.1e-07 s⁻¹, respectively. The values for the on-rate (kon) in assay [2] and in assay [3] were 250000 M⁻¹ s⁻¹ and 110000 M⁻¹ s⁻¹, respectively.

B12: ACI-8016-14G5B8-AB1 (antibody, V domains shown)
VH: EVQLQESGPELVKPGSSVKISCKASGYTFADHYMNWVKQSHGKSLEWIGDINPNNGGSVYNQKFKGKATLTVDKSSSTAYMELRSLTSEDSAVYFCARRRAHYYDGPYFDYWGQGTTLTVSS
VL: DIVMTQSQKFMSTSVGDRVSLTCKASQIVGTAVAWYQQKPGQSPKLLIYSASIRYTGVPDRFTGSGSGTDFTLTISNMQSEDLADYFCQQYSNYPTFGAGTKLELK
notes: also called 936.14G5B8
Regarding B12, the EC50 was 90 pM in assay [1], 160 pM with mouse ASC and 170 pM with CARD domain of human ASC. For the same molecule, the binding result with PYD domain of human ASC was “no binding”.

B13: ACI-8016-2516A8C6-AB1 (antibody, V domains shown)
VH: QVQLQQSGAELARPGASVKLSCKASGHTFTSYGISWVKQRTGQGLEWIGKIYPRSGNTYYDEKFKGKATLTADKPSTTAYMELRSLTSEDSAVYFCATRDYWGQGTTLTVSS
VL: QIVLTQSPVIMSASPGEKVTITCSASSSVSYMYWFQQKPGTSPKFWIYSTSNLASGVPARFSGSGSGTSYSLTISRMEAEDAATYYCQQRSRYPWTFGGGTKLEIK
For B13, the concentration giving a half-maximal response (EC50) amounted to 260 pM in assay [1], 160 pM in the assay with PYD domain of human ASC and 260 pM with mouse ASC. Moreover, the binding result with CARD domain of human ASC was “no binding”.

B14: ACI-8016-7G3B5-AB1 (antibody, V domains shown)
VH: EVQLQQSVAELVRPGASVKLSCTASGFNIKNTYMHWVKQRPEQGLEWIGRIDPANGNTKYVPKFQGKATITADTSSKTAYLQLSSLTSEDTAIYYCTRWGFDKDGVVYAMDYWGQGTSVTVSS
VL: DVVLTQSPATLSVTPGDSVSLSCRASQSIYNNLHWYQQKSHESPRLLVKYASQSISGIPSRFSGSGSGTDFTLSINSVETEDFGMYFCQQSNSWPLTFGAGTKLELK
notes: also called 936.7G3B5
For the molecule B14, the EC50 in assay [1] is 190 pM; with PYD domain of human ASC it was 160 pM; with mouse ASC it was 170 pM. Also, the binding result with CARD domain of human ASC is reported as “no binding”.

One may read the EC50 as the concentration needed to bring the measured effect to its halfway point. Lower therefore signals a more potent agent. The term koff denotes the rate constant with which the complex falls apart. For orientation: kon means the rate constant with which the complex forms.
